Data on 1 molecule can be found in patent publication US12459997B2, “Compounds and methods targeting interleukin-19” (Eli Lilly and Company, priority 2018, dated 2025).

For data set [1], the target named is T1, recombinant human IL-19 (Homo sapiens, UniProt Q9UHD0).
T1 sequence (Q9UHD0 25-177): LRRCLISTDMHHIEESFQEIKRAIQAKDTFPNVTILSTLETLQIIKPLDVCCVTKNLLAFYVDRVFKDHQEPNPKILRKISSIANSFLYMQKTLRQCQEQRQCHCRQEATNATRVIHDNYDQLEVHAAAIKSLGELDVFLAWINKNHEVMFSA
The experiment in a line: Bio-layer interferometry (BLI) binding kinetics and affinity (Octet Red96). The following applies: 25° C.; 1:1 binding model. On the procedure:
Bio-layer interferometry (BLI) assay, measured with a Octet Red96® instrument available from ForteBio (using HBS-EP+ running buffer (GE Healthcare, 10 mM Hepes pH7.4+150 mM NaCl+3 mM EDTA+0.05% surfactant P20) at 25° C.), is used to measure binding of the exemplified IL-19 antibodies of the present invention to recombinant human IL-19 (having the amino acid sequence set for in SEQ ID NO: 1).
Except as noted, all reagents and materials are from ForteBio (Freemont, Calif.). An AMQ biosensor is used to immobilize antibody of interest for analysis. […] Recombinant human IL-19 is prepared to concentrations of 270, 90, 30, 10, 3.33, 1.11, 0.370, and 0 (blank) nM by dilution into running buffer. Each analysis consists of: (1) capturing antibody samples on biosensors for 300 secs; (2) establishing a baseline by incubating antibody loaded biosensors with running buffer for 60 secs; (3) incubating antibody loaded biosensors with serially diluted recombinant human IL-19 for 300 secs to monitor association phase; (4) return of biosensor to running buffer to monitor dissociation phase.
Binding data is processed using standard double-referencing and fit to a 1:1 binding model using Data Analysis v9.0 evaluation software, to determine the association rate (kon, M^−1 s^−1 units), dissociation rate (koff, s^−1 units), and Rmax (nm units). The equilibrium dissociation constant (KD) was calculated from the relationship KD=koff/kon, and is in molar units.
(In general: In BLI a coated tip is dipped into the sample, and binding shifts an interference pattern.)

Data set [2] has as its target T1, recombinant human IL-19. The experiment in a line: HDX-MS epitope mapping. The format is binding. The following applies: IL-19:antibody molar ratio 1:1.2.
Description: Briefly, HDX-MS is performed on a Waters nanoACQUITY system with HDX technology, including a LEAP HDX robotic liquid handling system and mass analysis is performed on a Waters Xevo G2-Tof mass spectrometer. […] The deuterium exchange experiment is initiated adding 55 uL of D2O buffer containing 0.1×PBS to 5 ul of human IL-19 or the human IL-19/antibody complex at 15° C. for various amounts of time (0 s, 10 s, 1 min, 10 min, 60 min, 120/240 min). The reaction is quenched using equal volume of was 0.32M TCEP, 0.1M phosphate pH 2.5 for two minutes at 1° C. 50 μL of the quenched reaction is injected on to an on-line pepsin column (Waters BEH Enzymate) at 14° C., using 0.2% formic acid in water as the mobile phase at a flow rate of 100 μL/min for 4 min. The resulting peptic peptides are then separated on a C18 column (Waters, Acquity UPLC BEH C18, 1.7 m, 1.0 mm×50 mm) fit with a Vanguard trap column using a 3 to 85% acetonitrile (containing 0.2% formic acid) gradient over 10 min at a flow rate of 50 L/min. The separated peptides are directed into a Waters Xevo G2 time-of-flight (qTOF) mass spectrometer. […] The relative deuterium incorporation for each peptide is determined by processing the MS data for deuterated samples along with the non-deuterated control in DynamX.
Data set [3] deals with T2, human IL-19 / human IL-20R beta Fc-fusion protein (Homo sapiens, UniProt Q9UHD0).
T2 sequence (Q9UHD0 25-177): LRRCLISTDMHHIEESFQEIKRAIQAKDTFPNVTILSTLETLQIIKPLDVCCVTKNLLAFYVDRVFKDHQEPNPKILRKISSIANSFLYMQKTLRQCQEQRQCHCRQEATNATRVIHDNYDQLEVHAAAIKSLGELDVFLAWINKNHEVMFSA
The experiment in a line: BLI in vitro neutralization: IL-19 captured by antibody, then incubated with IL-20R beta Fc. To be noted: block of IL-19 binding to soluble receptor. The text has this:
Alternatively, a biophysical assay such as bio-layer interferometry (BLI) may be used for assessing neutralization of IL-19 by antibodies of the present invention. Binding between a ligand immobilized on the biosensor tip surface and an analyte in solution produces an increase in optical thickness at the biosensor tip, which results in a wavelength shift (expressed in nm). According to such assay, the IL-19 receptor (i.e., […]) is expressed in a membrane-free manner (such as with an Fc-fusion e.g. IL20Rbeta Fc chimera protein from R&D Systems catalog 1788-IR-050). […] The immobilized antibodies are then incubated with recombinant human IL-19 protein diluted to 100 nM using HBS-EP+ running buffer (GE Healthcare, 10 mM Hepes pH7.4+150 mM NaCl+3 mM EDTA+0.05% surfactant P20) for 240-300 secs. The human IL-19, after binding to the anti-IL-19 antibody, is assessed by incubation with human IL-20R beta Fc-fusion protein for 240-300 secs. The ability of the antibody to block or neutralize binding of the IL-19 ligand to the soluble receptor is observed as a minimal (<0.025 nm) increase in the wavelength during this step of the assay.

B1: R_39: rabbit-derived IL-19 antibody; LC SEQ ID NO: 310, HC SEQ ID NO: 311 (antibody)
heavy: QEQLKESGGGLVQPGGSLKLSCKASGFDLSSYGVSWVRQAPGKGLEWIGYIDPVFGSTYYANWVNGRFTISSDNAQNTLYLQLNSLTAADTATYFCARGSGYVYYGYTYDLWGPGTLVTVSSGQPKAPSVFPLAPCCGDTPSSTVTLGCLVKGYLPEPVTVTWNSGTLTNGVRTFPSVRQSSGLYSLSSVVSVTSSSQPVTCNVAHPATNTKVDKTVAPSTCSKPTCPPPELLGGPSVFIFPPKPKDTLMISRTPEVTCVVVDVSQDDPEVQFTWYINNEQVRTARPPLREQQFNSTIRVVSTLPIAHQDWLRGKEFKCKVHNKALPAPIEKTISKARGQPLEPKVYTMGPPREELSSRSVSLTCMINGFYPSDISVEWEKNGKAEDNYKTTPAVLDSDGSYFLYSKLSVPTSEWQRGDVFTCSVMHEALHNHYTQKSISRSPGK
light: DIVMTQTPASVEAAVGGTVTIKCQASQSIYRYLSWYQQKPGQRPKLLIYGASNLASGVSSRFKGSGSGTEFTLTISDLECADAATYYCQSYYYSSSSGYGNVFGGGTEVVVKGDPVAPTVLIFPPAADQVATGTVTIVCVANKYFPDVTVTWEVDGTTQTTGIENSKTPQNSADCTYNLSSTLTLTSTQYNSHKEYTCKVTQGTTSVVQSFNRGDC
In general, kon refers to a measure of how fast the partners come together. As for B1, the kon with recombinant human IL-19 [1] is 206000 M⁻¹ s⁻¹. The “residues of SEQ ID NO. 1 with decreased deuterium uptake in complex with antibody (epitope region)” value in the data set with recombinant human IL-19 [2] is “residues 42-60 ([…]), 90-107 ([…]), and 149-160 ([…])”. The Neutralization result in data set [3] is “Yes (minimal (<0.025 nm) increase in the wavelength)”.
